Patent publication US20190161555A1

What was measured:
[1] = target: human/mouse 5T4 chimera aa173-420 (human; mouse) (UniProt Q13641); test: flow cytometry, cells with 5T4 chimera; % positive cells over that of the best clone
[2] = target: Chimeric OX40 construct 1545 (human; mouse) (UniProt P43489); test: flow cytometry, 293-F cells transfected with the construct
[3] = target: Chimeric OX40 construct 1546 (human; mouse) (UniProt P43489); test: as above
[4] = target: Chimeric OX40 construct 1549 (human; mouse) (UniProt P47741); test: as above
[5] = target: Chimeric OX40 construct 1544 (human; mouse) (UniProt P47741); test: as above
[6] = target: Chimeric OX40 construct 1548 (human; mouse) (UniProt P43489); test: as above
[7] = target: Chimeric OX40 construct 1547 (human; mouse) (UniProt P43489); test: as above
Chimeric OX40 construct 1547 (human; mouse), sequence (P43489 other isoform, or with tags, fused parts or gaps mutant, form in doubt): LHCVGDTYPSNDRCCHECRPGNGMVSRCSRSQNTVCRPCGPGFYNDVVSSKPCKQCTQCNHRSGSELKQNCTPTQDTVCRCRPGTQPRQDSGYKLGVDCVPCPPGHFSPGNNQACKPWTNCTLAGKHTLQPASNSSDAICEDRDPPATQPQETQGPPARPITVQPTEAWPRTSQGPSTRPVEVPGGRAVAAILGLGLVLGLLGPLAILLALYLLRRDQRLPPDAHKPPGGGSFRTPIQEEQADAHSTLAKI

Chimeric OX40 construct 1545 (human; mouse), sequence (P43489 other isoform, or with tags, fused parts or gaps mutant, form in doubt): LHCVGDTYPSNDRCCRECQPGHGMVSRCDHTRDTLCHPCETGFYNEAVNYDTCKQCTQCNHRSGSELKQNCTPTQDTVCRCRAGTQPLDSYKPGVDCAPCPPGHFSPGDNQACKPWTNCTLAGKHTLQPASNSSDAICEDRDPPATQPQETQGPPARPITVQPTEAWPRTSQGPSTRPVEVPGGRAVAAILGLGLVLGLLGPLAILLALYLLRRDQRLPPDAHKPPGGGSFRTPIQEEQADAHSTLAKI
Chimeric OX40 construct 1544 (human; mouse), sequence (P43489 other isoform, or with tags, fused parts or gaps mutant, form in doubt): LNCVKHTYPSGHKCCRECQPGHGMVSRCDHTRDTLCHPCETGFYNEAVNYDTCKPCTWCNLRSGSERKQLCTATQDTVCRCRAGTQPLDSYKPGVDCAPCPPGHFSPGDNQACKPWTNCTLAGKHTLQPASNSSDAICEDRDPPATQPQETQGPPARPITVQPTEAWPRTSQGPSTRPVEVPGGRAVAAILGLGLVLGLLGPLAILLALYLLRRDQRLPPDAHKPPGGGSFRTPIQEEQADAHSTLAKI
Chimeric OX40 construct 1548 (human; mouse), sequence (P43489 other isoform, or with tags, fused parts or gaps mutant, form in doubt): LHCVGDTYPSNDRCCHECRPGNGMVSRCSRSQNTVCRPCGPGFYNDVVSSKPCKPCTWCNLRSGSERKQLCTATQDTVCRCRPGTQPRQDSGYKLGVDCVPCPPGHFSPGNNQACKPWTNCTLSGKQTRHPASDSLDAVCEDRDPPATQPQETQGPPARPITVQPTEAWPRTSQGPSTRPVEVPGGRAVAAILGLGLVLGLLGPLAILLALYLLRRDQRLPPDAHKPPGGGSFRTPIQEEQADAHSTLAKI
Chimeric OX40 construct 1546 (human; mouse), sequence (P43489 other isoform, or with tags, fused parts or gaps mutant, form in doubt): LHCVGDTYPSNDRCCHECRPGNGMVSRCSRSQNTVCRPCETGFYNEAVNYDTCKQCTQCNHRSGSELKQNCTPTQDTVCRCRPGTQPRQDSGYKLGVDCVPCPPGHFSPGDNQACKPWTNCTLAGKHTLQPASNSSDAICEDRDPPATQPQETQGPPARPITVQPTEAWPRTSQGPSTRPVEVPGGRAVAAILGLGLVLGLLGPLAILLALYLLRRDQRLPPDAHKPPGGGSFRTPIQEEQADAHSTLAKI
human/mouse 5T4 chimera aa173-420 (human; mouse), sequence (Q13641 other isoform, or with tags, fused parts or gaps mutant limits assumed, form in doubt): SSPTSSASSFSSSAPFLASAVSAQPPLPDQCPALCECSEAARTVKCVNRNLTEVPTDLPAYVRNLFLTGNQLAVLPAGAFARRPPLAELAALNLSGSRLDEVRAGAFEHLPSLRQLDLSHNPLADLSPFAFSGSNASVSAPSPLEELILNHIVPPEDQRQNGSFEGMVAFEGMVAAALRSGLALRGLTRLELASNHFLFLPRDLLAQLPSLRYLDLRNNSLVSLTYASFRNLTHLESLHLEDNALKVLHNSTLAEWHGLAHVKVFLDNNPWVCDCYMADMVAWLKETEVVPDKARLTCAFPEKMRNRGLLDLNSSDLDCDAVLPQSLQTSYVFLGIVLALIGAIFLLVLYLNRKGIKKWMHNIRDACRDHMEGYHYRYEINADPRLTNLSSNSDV

Row | normalized % positive cells [1] | relative MFI (fold over isotype control) [2] | relative MFI (fold over isotype control) [3] | relative MFI (fold over isotype control) [4] | relative MFI (fold over isotype control) [5] | relative MFI (fold over isotype control) [6] | relative MFI (fold over isotype control) [7] | Binder
1 | -0.01 |  |  |  |  |  |  | 1212/1213 (antibody, IgG1, V domains shown) VH: EVQLLESGGGLVQPGGSLRLSCAASGFTFSSYAMSWVRQAPGKGLEWVSYISSYGGYTSYADSVKGRFTISRDNSKNTLYLQMNSLRAEDTAVYYCARYHSGVLDYWGQGTLVTVSS VL: DIQMTQSPSSLSASVGDRVTITCRASQSISSYLNWYQQKPGKAPKLLIYAASSLQSGVPSRFSGSGSGTDFTLTISSLQPEDFATYYCQQYYYHYLLTFGQGTKLEIK
2 |  | 1.3 | 0.9 | 8.5 | 1.1 | 12.7 | 1 | 1526/1527 (antibody, V domains shown) VH: EVQLLESGGGLVQPGGSLRLSCAASGFTFSGYSMYWVRQAPGKGLEWVSGIGYSGYGTYYADSVKGRFTISRDNSKNTLYLQMNSLRAEDTAVYYCARYYFHDYAAYSLDYWGQGTLVTVSS VL: DIQMTQSPSSLSASVGDRVTITCRASQSISSYLNWYQQKPGKAPKLLIYAASSLQSGVPSRFSGSGSGTDFTLTISSLQPEDFATYYCQQYGSDSLLTFGQGTKLEIK
3 |  | 0.9 | 0.9 | 11.2 | 1.5 | 15.4 | 1 | 1524/1525 (antibody, V domains shown) VH: EVQLLESGGGLVQPGGSLRLSCAASGFTFGSYYMGWVRQAPGKGLEWVSSIGSYYGYTYYADSVKGRFTISRDNSKNTLYLQMNSLRAEDTAVYYCARHDYGALDYWGQGTLVTVSS VL: DIQMTQSPSSLSASVGDRVTITCRASQSISSYLNWYQQKPGKAPKLLIYAASSLQSGVPSRFSGSGSGTDFTLTISSLQPEDFATYYCQQYGPSGLFTFGQGTKLEIK
4 |  | 1 | 0.8 | 11.3 | 14.2 | 15.8 | 15.2 | 1166/1167 (antibody, V domains shown) VH: EVQLLESGGGLVQPGGSLRLSCAASGFTFGGYYMSWVRQAPGKGLEWVSAISGSGGSTYYADSVKGRFTISRDNSKNTLYLQMNSLRAEDTAVYYCARYDYASMDYWGQGTLVTVSS VL: DIQMTQSPSSLSASVGDRVTITCRASQSISSYLNWYQQKPGKAPKLLIYAASSLQSGVPSRFSGSGSGTDFTLTISSLQPEDFATYYCQQYYWYGLSTFGQGTKLEIK
5 | 0.3 |  |  |  |  |  |  | 1206/1207 (antibody, V domains shown) VH: EVQLLESGGGLVQPGGSLRLSCAASGFTFSGSSMSWVRQAPGKGLEWVSSIYYSGSGTYYADSVKGRFTISRDNSKNTLYLQMNSLRAEDTAVYYCARYGRNVHPYNLDYWGQGTLVTVSS VL: DIQMTQSPSSLSASVGDRVTITCRASQSISSYLNWYQQKPGKAPKLLIYAASSLQSGVPSRFSGSGSGTDFTLTISSLQPEDFATYYCQQGYYYLPTFGQGTKLEIK
6 |  | 1.2 | 0.9 | 10.6 | 11.6 | 17.2 | 1.1 | 1514/1515 (antibody, V domains shown) VH: EVQLLESGGGLVQPGGSLRLSCAASGFTFGYYYMSWVRQAPGKGLEWVSGISSYGSYTYYADSVKGRFTISRDNSKNTLYLQMNSLRAEDTAVYYCARSGYSNWANSFDYWGQGTLVTVSS VL: DIQMTQSPSSLSASVGDRVTITCRASQSISSYLNWYQQKPGKAPKLLIYAASSLQSGVPSRFSGSGSGTDFTLTISSLQPEDFATYYCQQGDYTLFTFGQGTKLEIK
